Positions count from the first letter of the chain named.

The text below walks through data of patent US20220332804A1 (CSL INNOVATION, published 2022).

Assay in all cases: SPR, antibody captured, C2 as analyte;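 also: biacore SPR at 37 °C, anti-C2 mAbs captured via goat anti-human IgG on CM5 chips, double-referenced sensorgrams fit to a 1:1 kinetic or steady-state model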
Background: Surface plasmon resonance follows binding to a sensor surface in real time, without labels.

For experiment [1], the target named is T1, human C2 G707A (human, UniProt P06681 21-752).
T1 sequence: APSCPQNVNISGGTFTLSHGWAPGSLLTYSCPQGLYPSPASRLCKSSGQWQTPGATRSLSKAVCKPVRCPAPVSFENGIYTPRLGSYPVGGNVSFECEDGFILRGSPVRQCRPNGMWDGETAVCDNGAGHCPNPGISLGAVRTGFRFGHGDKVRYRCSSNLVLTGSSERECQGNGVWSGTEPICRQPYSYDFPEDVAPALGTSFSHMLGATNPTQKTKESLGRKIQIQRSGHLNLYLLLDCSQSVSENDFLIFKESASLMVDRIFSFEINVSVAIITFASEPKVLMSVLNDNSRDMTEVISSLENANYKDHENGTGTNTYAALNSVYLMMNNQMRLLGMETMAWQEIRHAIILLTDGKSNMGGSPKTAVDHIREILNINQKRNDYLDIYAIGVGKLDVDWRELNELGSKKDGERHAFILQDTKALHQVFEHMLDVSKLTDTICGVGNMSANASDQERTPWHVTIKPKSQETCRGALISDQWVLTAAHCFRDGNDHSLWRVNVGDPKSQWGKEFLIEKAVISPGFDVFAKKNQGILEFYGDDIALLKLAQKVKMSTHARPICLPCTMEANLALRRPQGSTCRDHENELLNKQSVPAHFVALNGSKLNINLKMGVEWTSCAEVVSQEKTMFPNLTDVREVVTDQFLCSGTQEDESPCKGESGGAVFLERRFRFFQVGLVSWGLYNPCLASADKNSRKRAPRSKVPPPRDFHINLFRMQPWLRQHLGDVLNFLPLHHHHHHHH

The target in experiment [2] is T2, human C2 K550A (human, UniProt P06681 21-752).
T2 sequence: T1 sequence with K530A, A687G

For experiment [3], the target named is T3, human C2 E556A (human, UniProt P06681 21-752).
T3 sequence: T1 sequence with E536A, A687G

In experiment [4] the target is T4, human C2 M648A (human, UniProt P06681 21-752).
T4 sequence: T1 sequence with M628A, A687G

B1: RF16-226 (antibody, human IgG4 S228P, lambda)
heavy: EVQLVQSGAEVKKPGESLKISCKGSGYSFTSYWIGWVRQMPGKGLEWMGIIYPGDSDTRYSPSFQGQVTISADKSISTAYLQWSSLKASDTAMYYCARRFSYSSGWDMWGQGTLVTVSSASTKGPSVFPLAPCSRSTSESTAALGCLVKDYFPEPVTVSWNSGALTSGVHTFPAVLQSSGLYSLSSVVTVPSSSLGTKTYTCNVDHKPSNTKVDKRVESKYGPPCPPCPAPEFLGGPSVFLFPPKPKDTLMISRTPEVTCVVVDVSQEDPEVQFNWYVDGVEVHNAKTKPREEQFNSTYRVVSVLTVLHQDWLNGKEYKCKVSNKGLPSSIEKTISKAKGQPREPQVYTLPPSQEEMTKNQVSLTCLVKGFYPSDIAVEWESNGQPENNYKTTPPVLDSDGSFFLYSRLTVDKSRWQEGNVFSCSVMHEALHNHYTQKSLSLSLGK
light: SYELTQPPSVSVSPGQTARITCSGDALTSKYVAWYQQKSGLAPLLVIYEDTRRPSGIPAKFSGSSSGSVATLTISGAHGDDEADYYCYSTDASGHQRVFGGGTKLTVLSQPKAAPSVTLFPPSSEELQANKATLVCLISDFYPGAVTVAWKADGSPVKAGVETTKPSKQSNNKYAASSYLSLTPEQWKSHRSYSCQVTHEGSTVEKTVAPTECS
notes: pH-dependent anti-C2 antibody from a phage display library; also called WT
Consider B1, for which the dissociation constant Kd was 19.4 nM in experiment [1], 15 nM in experiment [2], 5.9 nM in experiment [3] and 203 nM in experiment [4].

As a reminder, the Kd is the free concentration of one partner at which half of the binding sites on the other are occupied at equilibrium, for simple one-to-one binding. Higher therefore signals a looser complex.
